Laboratory results taken from US20210292385A1 (WNTRX PHARMACEUTICALS, published 2021).
Bridge positions count the residues as written; N and C are the ends. Square brackets hold non-standard residues; d marks the D form. 2Nal = N[C@@H](Cc1ccc2ccccc2c1)C(=O)O; S5 = C=CCCC[C@](C)(N)C(=O)O; βAla = NCCC(=O)O

What was measured:
[1] = biological target: β-catenin protein (ALPHA screening assay) (UniProt P35222); experiment: ALPHA screen: biotinylated peptide on streptavidin donor beads, β-catenin on protein A acceptor beads via anti-β-catenin antibody
[2] = biological target: T1, β-catenin in cells (LEF/TCF-bla HCT-116 reporter cells; Colo320DM cells) (UniProt P35222 2-781, limits assumed); experiment: cell-based or functional assay
T1 sequence (looked up): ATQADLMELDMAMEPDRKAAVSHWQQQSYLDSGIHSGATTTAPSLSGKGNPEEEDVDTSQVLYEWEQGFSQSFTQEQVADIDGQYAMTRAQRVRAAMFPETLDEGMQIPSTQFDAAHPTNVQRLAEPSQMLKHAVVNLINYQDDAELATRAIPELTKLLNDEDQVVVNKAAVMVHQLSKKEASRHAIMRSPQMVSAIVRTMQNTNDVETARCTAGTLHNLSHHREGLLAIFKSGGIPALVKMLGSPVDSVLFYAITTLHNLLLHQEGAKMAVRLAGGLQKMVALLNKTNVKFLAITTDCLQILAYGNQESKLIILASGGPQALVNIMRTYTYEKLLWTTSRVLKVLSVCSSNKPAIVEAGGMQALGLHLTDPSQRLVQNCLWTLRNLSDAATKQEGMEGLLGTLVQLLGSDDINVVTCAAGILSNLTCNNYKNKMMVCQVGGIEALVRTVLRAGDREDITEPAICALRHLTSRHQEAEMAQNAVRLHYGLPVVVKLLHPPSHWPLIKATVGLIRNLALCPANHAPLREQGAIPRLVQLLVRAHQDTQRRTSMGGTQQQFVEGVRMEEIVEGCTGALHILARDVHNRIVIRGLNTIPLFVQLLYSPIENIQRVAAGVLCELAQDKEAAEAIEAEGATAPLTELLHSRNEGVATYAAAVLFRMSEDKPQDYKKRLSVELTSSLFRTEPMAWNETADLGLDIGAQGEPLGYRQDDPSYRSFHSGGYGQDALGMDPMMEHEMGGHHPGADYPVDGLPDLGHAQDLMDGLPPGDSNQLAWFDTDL

[3] = biological target: T1, β-catenin in cells (LEF/TCF-bla HCT-116 …); experiment: cell-based or functional assay; remark: listed apart in the source
[4] = biological target: T2, β-catenin protein (ALPHA screening assay) (UniProt P35222 1-781, limits assumed); experiment: ALPHA screen: biotinylated peptide on streptavidin donor beads, β-catenin on protein A acceptor beads via anti-β-catenin antibody
T2 sequence (looked up): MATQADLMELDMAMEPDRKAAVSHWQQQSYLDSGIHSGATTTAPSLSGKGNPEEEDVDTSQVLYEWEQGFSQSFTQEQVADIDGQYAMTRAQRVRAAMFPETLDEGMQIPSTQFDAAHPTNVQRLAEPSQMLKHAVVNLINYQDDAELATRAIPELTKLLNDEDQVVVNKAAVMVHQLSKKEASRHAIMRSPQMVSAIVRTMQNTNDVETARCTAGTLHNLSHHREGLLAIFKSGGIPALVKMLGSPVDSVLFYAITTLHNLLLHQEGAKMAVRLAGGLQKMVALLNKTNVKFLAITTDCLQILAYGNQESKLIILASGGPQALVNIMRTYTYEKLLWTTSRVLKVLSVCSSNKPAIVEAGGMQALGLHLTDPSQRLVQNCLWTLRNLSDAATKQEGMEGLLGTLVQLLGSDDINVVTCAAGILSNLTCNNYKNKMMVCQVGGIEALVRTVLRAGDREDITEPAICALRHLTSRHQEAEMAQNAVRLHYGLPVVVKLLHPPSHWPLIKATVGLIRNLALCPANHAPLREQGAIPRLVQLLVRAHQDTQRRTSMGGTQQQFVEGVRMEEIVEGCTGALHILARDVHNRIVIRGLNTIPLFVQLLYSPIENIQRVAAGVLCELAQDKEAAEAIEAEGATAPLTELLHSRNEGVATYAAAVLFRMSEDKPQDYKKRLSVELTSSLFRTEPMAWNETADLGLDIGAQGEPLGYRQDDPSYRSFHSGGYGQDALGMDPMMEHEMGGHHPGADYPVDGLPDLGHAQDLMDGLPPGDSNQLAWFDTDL

[5] = biological target: T3, Histidine-tagged β-catenin (HTRF assay) (UniProt P35222 1-781, limits assumed); experiment: HTRF assay (Cisbio): biotin-labeled peptide, His-tagged β-catenin, Eu-labeled anti-His antibody and SA-XL665
T3 construct: also called His-tag protein; not shown: histidine tag
T3 sequence (looked up): T2 sequence (looked up)

full-length HD2 domain of human BCL9 protein (peptide)
Kd [1]: 0.02 µM | signal versus background ratio [1]: 180 fold

B1: WX-020 (peptide)
peptide: Ac-LR[S5]IQR[S5]L-NH2
modifications: staple 3-7
SMILES: CC[C@H](C)[C@@H]1NC(=O)[C@@](C)(NC(=O)[C@H](CCCNC(=N)N)NC(=O)[C@H](CC(C)C)NC(C)=O)CCCC=CCCC[C@@](C)(C(=O)N[C@@H](CC(C)C)C(N)=O)NC(=O)[C@H](CCCNC(=N)N)NC(=O)[C@H](CCC(N)=O)NC1=O
IC50, CellTiterGlo cell viability assay, Colo320DM cells [2]: 12.4 µM | IC50, Wnt transcription assay (GeneBLAzer reporter, procedures of Example 4.1) [2]: 1.58 µM

B2: WX-021 (peptide)
peptide: Ac-LR[S5]IQR[S5]L[2Nal][βAla][βAla]-NH2
modifications: staple 3-7
SMILES: CC[C@H](C)[C@@H]1NC(=O)[C@@](C)(NC(=O)[C@H](CCCNC(=N)N)NC(=O)[C@H](CC(C)C)NC(C)=O)CCCC=CCCC[C@@](C)(C(=O)N[C@@H](CC(C)C)C(=O)N[C@@H](Cc2ccc3ccccc3c2)C(=O)NCCC(=O)NCCC(N)=O)NC(=O)[C@H](CCCNC(=N)N)NC(=O)[C@H](CCC(N)=O)NC1=O
IC50, GeneBLAzer beta-lactamase reporter assay, LEF/TCF-bla HCT-116 cells [2]: 0.764 µM

Ac-LQTLR[S5]IQR[S5]L[2Nal]-NH2 (staple 6-10; also: tested as trifluoroacetic, acetate and hydrochloric salts) [WX-024]
IC50, cell-based Wnt transcription inhibition assay, acetate salt form of WX-024 [2]: 0.292 µM | IC50, cell-based Wnt transcription inhibition assay, hydrochloric salt of WX-024 [2]: 0.313 µM | IC50, GeneBLAzer beta-lactamase reporter assay, LEF-TCF-bla HCT116 cells [3]: 0.191 µM

B3: WX-020, biotinylated (ALPHA screen) (peptide)
peptide: Ac-LR[S5]IQR[S5]L-NH2
modifications: staple 3-7; also: biotinylated with a PEG linker, site not given here
notes: The general description of the ALPHA assay says that a biotinylated polypeptide is used
Kd [4]: 0.08 µM

B4: WX-024 (conjugated with biotin) (peptide)
peptide: Ac-LQTLR[S5]IQR[S5]L[2Nal]-NH2
modifications: staple 6-10; also: coupled to biotin (site not given here)
notes: also called biotinylated WX-024; BCL9 peptide labeled with biotin
Kd [5]: 0.00421 µM
